Laboratory results from article PMC9333443, “Structural insights into Pot1-ssDNA, Pot1-Tpz1 and Tpz1-Ccq1 Interactions within fission yeast shelterin complex” (PLoS Genetics, 2022).

B1: Tpz1, two-hybrid fusion, wild type (construct limits not stated) [S. pombe] / Ccq1, two-hybrid fusion, wild type (construct limits not stated) [S. pombe] (parent complex)
chain 1: MSNCLKHPWLENGLLNLIKNADVLPIRVFKCQPLQIFEYIRYEHPIRCKLSDTEFYIEAEFSSQSISDLNNFTEKRITSLRGGIVTLGNFLIHLIPSQSGIIPWIQVESFNFQGCEGAVFGNPKAITTSALFNALLQSPYLAALANEFNRSIKEGSSYQEASLSQQEKPNDNTSNSRDIKNNIQFHWKNMTSLSIEECIIPKGQQLILEKESEENTTHGIYLEERKMAQGLHNSVSETPEVKQEDNDEDLDAYSWSSSTDSAGEIPSLPTNRKILEKIAEKPPPFESPLEDDETPDQTNEHEANQVNVSQLPLNPRGSGISGRPVESTEQLNSSLTIERSQSIQSTDSKQRVETQSHRRSKIEIFDAQDELFDRSICTTIDDSTGKLLNAEETPIKTGDLHSTSASSVISCTPPAINFTSDICNEQIELEYKRKPIPDYDFMKGLETTLQELYVEHQSKKRRLELFQLTNNHQKNSEACEMCRLGLPHGSFFELLRDWKKIEEFRNKS
chain 2: MSEINDFTNSIIINESDTKYEVYSEVNSSNRWIAKEDCPSPLEDVWLLKLAGHKRKLEEPLSCMRNEEPASKQREIEKFLRTDLDHSENDFLTQEVDEFPSTQQLFPIPLQNDTAFDSSEESITKSSKSSFSVLDIGLPMSALQRKMMHRLVQYFAFCIDHFCTGPSDSRIQEKIRLFIQSAHNIAKHPSLYDTEVRNPSAAESTNSHVSLDASNFSSYAENSSKFLFLQELFKNLSPSYSKTFFLFISNQFLANTLTQWLKSQNIDAELWAEEDAKTSQHPAIWICVSKKAPSASHFLQSCPDLSATIFYDIEAYMSVTSSLPSIQSLVLRLIHLGSIEHAIKCFQSSYNASFLVNIVGVVATLSSSSEENSEASNLSTLFEKSGNFEEILGSESHSSITEKTRDIAKNVATWLKNGENFSSWPLPPLMDLASLSVAEPRDSQPSVSQVNDTFVKSSDSTFPSSQSMQSPSKLHSLTSNATDLLSSSSLKKNFFSQQEADEVELSNNYDLQGAAVQYLQRRLRMVEDELHEAINSKNVQQSRSEELEQQISKLTDNLQEYRNTVRELKLDLEKSKKKNEDLSKLEVEKVEEIANLKKELTHLAKQQEFGFKYVQEFSNEDLQGKLIEANEKNYKLTQLLKTQKEDADFITNQYQNASTFAAEQSKEVAKLQAECKRLQAINSKVMEEVKVYNDSRVEALLAKVSSLEETLKILEQKSLPKFTPHNQSPRIIDSN

Variants of: B1
Experiment: yeast two-hybrid (β-galactosidase); parent: 100; read off a plot

Row | percent of parent [% WT] | Variant
1 | ~16 | chain 2 L143R
2 | ~31 | chain 2 E221R
3 | ~13 | chain 2 F155R
4 | ~13 | chain 2 P189R
5 | ~85 | chain 2 L177R
6 | ~13 | chain 2 M147R
7 | ~13 | chain 2 I185R
8 | ~13 | chain 2 L151R

Variants of: B1
Experiment: as above
Remark: another data set of the same source

Row | percent of parent [% WT] | Variant
9 | ~65 | chain 1 P435A
10 | ~72 | chain 1 K432A
11 | ~14 | chain 1 F441A
12 | ~90 | chain 1 R433A
13 | ~100 | chain 1 H456A
14 | ~16 | chain 1 Y453R
15 | ~14 | chain 1 L445R
16 | ~100 | chain 1 D438A
17 | ~15 | chain 1 L449R
18 | ~15 | chain 1 Y439A
